16 variants from the supplement of paper PMC7125110 can be followed below.

± gives the standard error. Variants at the floor of the assay were thinned out. Bounds are passed on as bounds.

B1: glmS ribozyme (parent)
chain: AUAAAAGCGCCAGAACUACAGAAAUGUAGUUGACGAGGAGGAGGUUUAUCGAAUUUUCGGCGGAUGCCUCCAAA

Holding throughout (settings): with glucosamine-6-phosphate
Series [1] covers variants of B1. In words: self-cleavage kobs at 40 uM GlcN6P; higher = faster cleavage; RNA array. In short, it runs like this:
(§1)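 Barcoded glmS ribozyme variants on sequenced MiSeq chips were transcribed in situ by E. coli RNA polymerase and tracked through a hybridised Cy3 probe at 37 °C. Glucosamine-6-phosphate (40 μM to 10 mM) in HEPES/KCl/Mg(OAc)2 buffer was flowed in, and tiles were imaged over ~14 h. Signals were normalised to baseline and to non-cleaving reference variants; per-tile medians were fit to one- or two-exponential decays to give kobs. kcat and KM came from weighted Michaelis–Menten fits across concentrations.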

In series [2] the parent is B1. In words: self-cleavage kobs at 2500 uM GlcN6P; higher = faster cleavage; RNA array. In short, it runs like this: as §1
In series [3] the parent is B1. Nature of the series: self-cleavage kobs at 10000 uM GlcN6P; higher = faster cleavage; RNA array. In short, it runs like this:
as §1

Series [4] covers variants of B1. In words: self-cleavage kobs at 640 uM GlcN6P; higher = faster cleavage; RNA array. Put shortly: as §1
Series [5] covers variants of B1. Nature of the series: self-cleavage kobs at 160 uM GlcN6P; higher = faster cleavage; RNA array. In short, it runs like this: as §1

For GUAAAAGCGCCAGAACUACAGAAAUGUAGUUGAUGAGGAGGAGGUUUAUCGUAUUUUCGGCGGAUGCCUCCAAA, in the series with glucosamine-6-phosphate [1], the “self-cleavage kobs at 40 uM GlcN6P” value is less than 1e-05 s⁻¹.
With AUAAAAGCGCCAGAACUACAGAAAUGUAGUUGACGAGGAGGAGCAUUAUCGAAUUUUCGGCGGAUGCCUCUAAA, in the series with glucosamine-6-phosphate [1], the “self-cleavage kobs at 40 uM GlcN6P” value is less than 1e-05 s⁻¹.
Regarding AUAAAAGCGGAAGAACUACAGAAAUGUAGUUGACGAGGAGGUGGUUUAUCGAAUUUUCGGCGGAUGCCUCCAAA, the “self-cleavage kobs at 40 uM GlcN6P” value with glucosamine-6-phosphate [1] was less than 1e-05 s⁻¹. The “self-cleavage kobs at 2500 uM GlcN6P” value with glucosamine-6-phosphate [2] was less than 1e-05 s⁻¹. The “self-cleavage kobs at 10000 uM GlcN6P” value in the series with glucosamine-6-phosphate [3] is less than 1e-05 s⁻¹.
In the case of AUAAAAGCGACAGAACUACAGAAAUGUAGUUGACGAGGAGGAGGUUUAACGAAUUUUCGGUUGAUGCCUCCAAA, the “self-cleavage kobs at 40 uM GlcN6P” value in the series with glucosamine-6-phosphate [1] is less than 1e-05 s⁻¹.
AUAAAAACGCCAGAACUACAGAAAUGUAGUUGACGAGGAAGAGGUUUAUCGCAUUUUCGGCGGAUGCCUCCAAA: the “self-cleavage kobs at 40 uM GlcN6P” value in the series with glucosamine-6-phosphate [1] was less than 1e-05 s⁻¹. The “self-cleavage kobs at 640 uM GlcN6P” value with glucosamine-6-phosphate [4] was less than 1e-05 s⁻¹. For the same variant, in the series with glucosamine-6-phosphate [3], the “self-cleavage kobs at 10000 uM GlcN6P” value is less than 1e-05 s⁻¹.
With AUAAAAGCGCCAGAACUACAGAAAUGUAGUUGACGAGAAGGCGGUUUAUCGAAUUUUCGGCGGAUGCCUCCAAA, in the series with glucosamine-6-phosphate [1], the “self-cleavage kobs at 40 uM GlcN6P” value was less than 1e-05 s⁻¹. In addition, the “self-cleavage kobs at 10000 uM GlcN6P” value with glucosamine-6-phosphate [3] was less than 1e-05 s⁻¹.
AUAAAAGCGCCAGUACUACAGAAAUGUAGUUGACGAGGAGGAGGUUUAUCGAAUUUUCGGCGAAUGCCUCCAAA: the “self-cleavage kobs at 40 uM GlcN6P” value with glucosamine-6-phosphate [1] is less than 1e-05 s⁻¹. Besides, in the series with glucosamine-6-phosphate [4], the “self-cleavage kobs at 640 uM GlcN6P” value is less than 1e-05 s⁻¹.
Turning to AUAAAAGCGCCAGAACUACAGAAAUGUAGUUGACGAGGAGGAGGUUUAUCGGAUUUGCGGCGGAUGCCUCCAAA, in the series with glucosamine-6-phosphate [1], the “self-cleavage kobs at 40 uM GlcN6P” value came to 5.61e-05 ± 1.6e-05 s⁻¹. For the same variant, the “self-cleavage kobs at 160 uM GlcN6P” value in the series with glucosamine-6-phosphate [5] is 0.000188 ± 6.1e-05 s⁻¹. For the same variant, the “self-cleavage kobs at 640 uM GlcN6P” value with glucosamine-6-phosphate [4] was 0.000523 ± 0.00014 s⁻¹. For the same variant, the “self-cleavage kobs at 2500 uM GlcN6P” value with glucosamine-6-phosphate [2] came to 0.00103 ± 0.00019 s⁻¹. Further, in the series with glucosamine-6-phosphate [3], the “self-cleavage kobs at 10000 uM GlcN6P” value came out at 0.00397 ± 0.00056 s⁻¹.
For AUAAAAGCGCCAGAACUACAGAAAUGUAGUUGACGAGGAGGAGGUUUAUAGAAUUUUCGGCAGCUGCCUCCAAA, in the series with glucosamine-6-phosphate [1], the “self-cleavage kobs at 40 uM GlcN6P” value is less than 1e-05 s⁻¹. The “self-cleavage kobs at 10000 uM GlcN6P” value with glucosamine-6-phosphate [3] is less than 1e-05 s⁻¹.
Regarding AUAAAAGGGCCAGAACUACAGAAAUGUAGUUGACGAGGAGGAGGUUUAUCGAAUUAUCGGCGGAUGCCUCCAAA, the “self-cleavage kobs at 40 uM GlcN6P” value in the series with glucosamine-6-phosphate [1] was less than 1e-05 s⁻¹. In the series with glucosamine-6-phosphate [4], the “self-cleavage kobs at 640 uM GlcN6P” value is less than 1e-05 s⁻¹. The “self-cleavage kobs at 2500 uM GlcN6P” value with glucosamine-6-phosphate [2] is less than 1e-05 s⁻¹.
AUAAAAGCGCCAGAACUACAGAAAUGUAGGUGACGAGGAGGAGGUUUAUGGAAUUUUCGGCGGAUGCCUCCAAA: the “self-cleavage kobs at 40 uM GlcN6P” value in the series with glucosamine-6-phosphate [1] was found to be 0.000146 ± 6.1e-05 s⁻¹. For the same variant, the “self-cleavage kobs at 160 uM GlcN6P” value in the series with glucosamine-6-phosphate [5] came to 7.58e-05 ± 2.1e-05 s⁻¹. Also, the “self-cleavage kobs at 640 uM GlcN6P” value with glucosamine-6-phosphate [4] turned out to be 7e-05 ± 2.2e-05 s⁻¹. Besides, in the series with glucosamine-6-phosphate [2], the “self-cleavage kobs at 2500 uM GlcN6P” value was determined as 0.000109 ± 2.3e-05 s⁻¹.
For AUAAAAGCGCCAGAAUUACAGAAAUGUAGUUGACGAGGAGGAGGUUUAUCGACAUUUCGGCGGAUGCCUCCAAA, the “self-cleavage kobs at 40 uM GlcN6P” value in the series with glucosamine-6-phosphate [1] worked out at 0.000103 ± 2.4e-05 s⁻¹. Moreover, the “self-cleavage kobs at 10000 uM GlcN6P” value in the series with glucosamine-6-phosphate [3] came to 0.00236 ± 0.00047 s⁻¹.
Take AUAAAAGCGCCAGAACUACAGAAAUGUAGUUGGCGAGGAGGAGGUUUAUCGAAUUUUCGCUGGAUGCCUCCAAA: the “self-cleavage kobs at 40 uM GlcN6P” value in the series with glucosamine-6-phosphate [1] is less than 1e-05 s⁻¹. Moreover, the “self-cleavage kobs at 640 uM GlcN6P” value with glucosamine-6-phosphate [4] was less than 1e-05 s⁻¹. Also, the “self-cleavage kobs at 10000 uM GlcN6P” value with glucosamine-6-phosphate [3] was less than 1e-05 s⁻¹.
Regarding AUAAAAGCGCCGGAACUACAGAAAUGUAGUUGACGAGGAGGAGGUUUAUCGACUGUUCGGCGGAUGCCUCCAAA, in the series with glucosamine-6-phosphate [1], the “self-cleavage kobs at 40 uM GlcN6P” value was less than 1e-05 s⁻¹. Moreover, the “self-cleavage kobs at 10000 uM GlcN6P” value with glucosamine-6-phosphate [3] worked out at 0.000115 ± 1.8e-05 s⁻¹.
On to AUAAAAGCGCCAGAACUACAGAAAUGUAGAUGACGAGGAGGAGGCUUCUCGAAUUUUCGGCGGAUGCCUCCAAA, for which the “self-cleavage kobs at 40 uM GlcN6P” value in the series with glucosamine-6-phosphate [1] is less than 1e-05 s⁻¹.
On to AUAAAAGCGCCAGAACUACAGAAAUGUAGUUGACGAGGAGGAGGUUUAUCGAAUUUUCUUCGGAUGCCUCCAAA, for which the “self-cleavage kobs at 40 uM GlcN6P” value with glucosamine-6-phosphate [1] is less than 1e-05 s⁻¹. Further, the “self-cleavage kobs at 160 uM GlcN6P” value in the series with glucosamine-6-phosphate [5] is less than 1e-05 s⁻¹. Moreover, the “self-cleavage kobs at 640 uM GlcN6P” value with glucosamine-6-phosphate [4] is less than 1e-05 s⁻¹. Further, the “self-cleavage kobs at 2500 uM GlcN6P” value in the series with glucosamine-6-phosphate [2] is less than 1e-05 s⁻¹.
